Biological target: aatf_human AATF (UniProt Q9NY61)
Sequence (Q9NY61 whole entry): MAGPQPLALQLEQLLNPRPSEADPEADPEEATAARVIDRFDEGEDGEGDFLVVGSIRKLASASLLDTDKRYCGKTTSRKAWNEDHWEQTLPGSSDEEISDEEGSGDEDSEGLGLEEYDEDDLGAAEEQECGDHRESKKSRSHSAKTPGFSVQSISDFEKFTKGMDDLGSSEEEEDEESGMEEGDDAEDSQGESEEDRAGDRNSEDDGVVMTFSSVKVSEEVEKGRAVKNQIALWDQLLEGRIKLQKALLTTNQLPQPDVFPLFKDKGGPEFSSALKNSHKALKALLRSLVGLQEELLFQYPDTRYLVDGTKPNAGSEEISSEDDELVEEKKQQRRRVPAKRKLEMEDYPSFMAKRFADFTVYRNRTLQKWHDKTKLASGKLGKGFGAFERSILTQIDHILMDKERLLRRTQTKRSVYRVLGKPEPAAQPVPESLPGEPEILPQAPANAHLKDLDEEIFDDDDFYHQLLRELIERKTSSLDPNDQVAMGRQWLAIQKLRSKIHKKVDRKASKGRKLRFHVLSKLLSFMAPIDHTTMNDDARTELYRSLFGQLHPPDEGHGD

effect of a mutation on the interaction: disrupting interaction
Substance: Serine/threonine-protein kinase ATR (Homo sapiens), Q13535 K2327R

— IntAct's records for PubMed 17157788
